# According to patent US20250136696A1 (HARBOUR BIOMED SHANGHAI, published 2025):
# T1: B7-H6 /NCR3LG1 protein, human, recombinant (Fc tag) (Sino Biological, 16140-H02H) (human, UniProt Q68D85 25-262)
# T1 construct: Bought
# T1 sequence (looked up): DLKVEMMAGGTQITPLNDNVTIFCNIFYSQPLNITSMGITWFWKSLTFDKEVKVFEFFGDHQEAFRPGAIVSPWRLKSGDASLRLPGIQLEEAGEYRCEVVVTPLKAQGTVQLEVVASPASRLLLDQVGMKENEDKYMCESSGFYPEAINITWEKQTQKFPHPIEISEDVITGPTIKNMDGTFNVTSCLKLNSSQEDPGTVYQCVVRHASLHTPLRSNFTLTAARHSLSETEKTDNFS
# T2: human B7-H7 on the cell surface (human, UniProt Q9UM44 23-414)
# T2 construct: whole, on cells; also called hB7-H7; hu B7-H7
# T2 sequence (looked up): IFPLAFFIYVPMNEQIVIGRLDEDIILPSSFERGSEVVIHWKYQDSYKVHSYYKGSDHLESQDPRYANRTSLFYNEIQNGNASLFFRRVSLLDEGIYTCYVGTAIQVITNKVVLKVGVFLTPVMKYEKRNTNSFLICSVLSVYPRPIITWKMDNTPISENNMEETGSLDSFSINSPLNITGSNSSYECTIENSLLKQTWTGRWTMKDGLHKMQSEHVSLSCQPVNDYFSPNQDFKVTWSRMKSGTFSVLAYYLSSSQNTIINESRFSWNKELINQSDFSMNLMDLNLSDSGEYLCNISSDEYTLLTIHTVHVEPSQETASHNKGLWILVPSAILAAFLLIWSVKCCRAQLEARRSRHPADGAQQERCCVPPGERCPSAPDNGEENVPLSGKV
# How the values were obtained:
# [1] = target: T1, B7-H6 /NCR3LG1 protein, human, …; assay: ELISA on coated B7 family protein
# Procedure: B7 family proteins (see Table 7 for details) were respectively diluted to […] with PBS, added into a 96-well plate (Corning, #9018) at 100 μl/well, and incubated at 4° C. overnight. After the liquid was discarded, the plate was washed 3 times with a PBST buffer (pH 7.4, containing 0.05% tween-20), 250 μl of blocking solution containing 2% BSA was added, and the plate was incubated for 1 hour at 37° C. The blocking solution was discarded, the plate was washed 3 times with PBST buffer (pH 7.4, containing 0.05% Tween-20), the antigen-binding protein to be tested was diluted to 2 concentrations of 10 nM and 1 nM, 100 μl of the diluted antigen-binding protein was added to each well, and the plate was incubated for 1 hour at 37° C., with the isotype antibody as the control. After the plate was washed 3 times with PBST buffer (pH 7.4, containing 0.05% Tween-20), goat anti-human HRP secondary antibody (Invitrogen, #A18805) diluted 5000 times was added, and the plate was incubated at 37° C. for 1 hour in the dark. After the plate was washed 3 times with PBST buffer (pH 7.4, containing 0.05% tween-20), TMB (Biopanda, #TMB-S-003) was added at 100 μl/well, and the plate was placed at room temperature for about 30 minutes in the dark; and a stop solution (BBI life sciences, #E661006-0200) was added to each well at 50 μl/well to stop the reaction, and the absorbance at 450 nm (OD450) was determined in a microplate reader (PerkinElemer, #Enspire).
# [2] = target: T2, human B7-H7 on the cell surface; assay: flow cytometry on HEK-293/hB7-H7 cells after 0-14 days in 90% human serum at 37 C
# Procedure: The cells were adjusted to a cell density of 1×10⁶ cells/mL, respectively. The cells were seeded in a 96-well V-bottom plate (Corning, #3894) at 100 μL/well, and the antibody to be tested at 2× final concentration with 3-fold concentration gradient dilution was then added at 100 μL/well. The cells were incubated at 4° C. for 2 hours in the dark. After the incubation, the cells were rinsed twice by adding pre-chilled PBS containing 2% BSA at 100 μL/well, and centrifuged at 500 g at 4° C. for 5 minutes, and the supernatant was discarded. […] The cells were washed twice by adding pre-chilled PBS containing 2% BSA at 100 μL/well, and centrifuged at 500 g at 4° C. for 5 minutes, and the supernatant was discarded. Finally, the cells were resuspended in pre-chilled PBS containing 2% BSA at 200 μL/well, and the fluorescence signal values were read using an ACEA Novocyte3000 flow cytometer.
binding result [1],EC50 (read off the curve) [2] [nM],Binder
no binding (tested: 10 nM),~1,"PR004263 (antibody, human IgG1, kappa, L234A L235A, Variant of PR003264; Human IgG1 with LALA mutation in Fc) heavy: not shown light: DIQLTQSPSFLSASVGDRVTITCRASQGISSYFAWYQQKPGKAPKLLIYAASTLQSGVPSRFSGSGSGTEFTLTISSLQPEDFATYYCQHLNRYPWTFGQGTKVEIKRTVAAPSVFIFPPSDEQLKSGTASVVCLLNNFYPREAKVQWKVDNALQSGNSQESVTEQDSKDSTYSLSSTLTLSKADYEKHKVYACEVTHQGLSSPVTKSFNRGEC"
no binding (tested: 10 nM),–,"PR004260 (antibody, human IgG1, kappa, L234A L235A, Variant of PR003181; Human IgG1 with LALA mutation in Fc) heavy: not shown light: DIVMSQSPSSLAVSAGEKVTMSCKSSQSLLNSRTRKNQLAWYQQKPGQSPKLLIYWASTRESGVPDRFTGSGSGTDFTLTISSVQAEDLAVYYCKQSYNLRTFGGGTKLEIKRTVAAPSVFIFPPSDEQLKSGTASVVCLLNNFYPREAKVQWKVDNALQSGNSQESVTEQDSKDSTYSLSSTLTLSKADYEKHKVYACEVTHQGLSSPVTKSFNRGEC"
